Target: His-tagged Vps5 dimer from Chaetomium thermophilum (Chaetomium thermophilum)
Assay: SEC-MALS

stoichiometry N: 2
Substance: His-tagged Vps5 dimer from Chaetomium thermophilum (natural protein)
